# Data as given in doi:10.1101/2024.04.26.587986 (bioRxiv, 2024).
# B1: β-galactosidase (GLB1), endogenous in mouse brain (enzyme, mouse (endogenous in mouse brain), UniProt P23780 30-647, looked up)
# chain: QRTFKLDYSRDRFLKDGQPFRYISGSIHYFRIPRFYWEDRLLKMKMAGLNAIQMYVPWNFHEPQPGQYEFSGDRDVEHFIQLAHELGLLVILRPGPYICAEWDMGGLPAWLLEKQSIVLRSSDPDYLVAVDKWLAVLLPKMKPLLYQNGGPIITVQVENEYGSYFACDYDYLRFLVHRFRYHLGNDVILFTTDGASEKMLKCGTLQDLYATVDFGTGNNITQAFLVQRKFEPKGPLINSEFYTGWLDHWGKPHSTVKTKTLATSLYNLLARGANVNLYMFIGGTNFAYWNGANTPYEPQPTSYDYDAPLSEAGDLTKKYFALREVIQMFKEVPEGPIPPSTPKFAYGKVALRKFKTVAEALGILCPNGPVKSLYPLTFTQVKQYFGYVLYRTTLPQDCSNPKPIFSSPFNGVRDRAYVSVDGVPQGILDRNLMTALNIRGKAGATLDILVENMGRVNYGRFINDFKGLISNMTINSTVLTNWTVFPLNTEAMVRNHLWGREASDEGHLDGRSTSNSSDLILPTFYVGNFSIPSGIPDLPQDTFIQFPGWSKGQVWINGFNLGRYWPTMGPQKTLFVPRNILTTSAPNNITVLELEFAPCSEGTPELCTVEFVDTPVIS
# Biological target: the molecule itself
# Assay: SEC
protein,measurement,value
B1,stoichiometry N,4
